Source: patent publication CN115772220A (WUHAN ABCLONAL INC, dated 2023)

B1: 兔单克隆抗体1F3 (rabbit monoclonal antibody 1F3 against human IL-1β) (antibody, V domains shown)
VH: QSVEESGGRLVTPGTPLTLTCTVSGFSLSRNAISWVRQPPGKGLEWIGFISSYDTTYYATWAKGRFTISKTSTTVDLKIASPTTEDTATYFCARETGADNNSNFDIWGPGTLVTVSS
VL: AQVLTQTPSPVSAAVGGTVTINCQSSQSVSHNNWLAWYQQKPGQPPKLLIYDASKLASGVSSRFRGSGSGTQFTLTISGVQCDDAATYYCQGETFCSSADCNAFGGGTELVVKG
notes: In the BLI experiments it was unlabelled; also called 兔抗Human IL-1β单克隆抗体A; 1F3-biotin
B2: 兔单克隆抗体10A10 (rabbit monoclonal antibody 10A10 against human IL-1β) (antibody, V domains shown)
VH: QSVEESGGRLVTPGTPLTLTCTVSGFSLSTYAMSWVRQAPGKGLEWIGIISGSGNTAYASWAKGRFTISKTSTTVDLKMTSPTTEDTATYFCARSYEDYANIWGPGTLVTVSS
VL: AQVLTQTPSSVSAAVGGTVTINCQASQSLYNNNELSWYQQKPGQPPKLLIYKASTLASGVSSRFKGSGSGTQFTLTISGVQCDDAATYYCQGDYSCRIADCYAFGGGTEVVVKG

What was measured:
[1] = target: T1, 重组人IL-1β蛋白 (recombinant human IL-1β protein, as used in the Gator BLI experiments) (human, UniProt P01584 117-269); experiment: BLI (Gator Prime), affinity test
T1 construct: also called 人白介素-1β; 目的蛋白

[2] = target: T2, 重组人白介素-1β，R&D货号:840170 (recombinant human IL-1β standard of the sandwich ELISA) (human, UniProt P01584 117-269); experiment: double-antibody sandwich ELISA, 10A10 capture and 1F3-biotin detection, human IL-1β at 100pg/mL
T2 construct: also called 标准样品; 人白介素-1β蛋白

[3] = target: 重组人IL-1β蛋白 (recombinant human IL-1β protein, as used in the Gator BLI experiments) (human) (UniProt P01584); experiment: BLI (Gator Prime), IL-1β on the probe saturated with 1F3, 10A10 as second antibody

Row | Binder | binding result [1] | binding result [2] | shift值 [3]
1 | B1 | binds | binds | –
2 | B2 | – | – | 0.214
